Results published in the Human Domainome abundance scans (Beltran et al. 2025).
± gives the uncertainty stated by the source.

B1: PDZ and LIM domain protein 2, residues 284 to 339; numbered along this chain, Q96JY6 (parent)
chain: HTCEKCSTSIANQAVRIQEGRYRHPGCYTCADCGLNLKMRGHFWVGDELYCEKHAR

Variants of: B1
Experiment: abundance fitness (aPCA) (normalised: wild type 0, dead -1); higher = more abundant; growth selection in yeast, the domain comes from the species named
Conditions: Homo sapiens

Abundance fitness of substitutions, site by site:
M39: W -0.523 ± 0.068 | C -0.186 ± 0.17 | S 0.057 ± 0.064 | I -0.347 ± 0.19 | E 0.286 ± 0.063 | Q 0.048 ± 0.12
N12: T 0.14 ± 0.071 | S -0.028 ± 0.073 | M -0.123 ± 0.11 | E 0.498 ± 0.091 | H 0.219 ± 0.14
G26: H 0.525 ± 0.14 | I 0.08 ± 0.2 | A 0.033 ± 0.091 | N -0.083 ± 0.12 | D 0.227 ± 0.073 | Q 0.232 ± 0.077 | M 0.037 ± 0.092
A11: M -0.521 ± 0.18 | T -0.016 ± 0.11 | H -0.085 ± 0.15 | R -0.231 ± 0.053 | C -0.446 ± 0.13 | D 0.321 ± 0.069 | G 0.017 ± 0.059 | N 0.351 ± 0.13
C30: V -0.789 ± 0.19 | G -0.618 ± 0.12 | I -1.06 ± 0.36 | A -1.01 ± 0.082 | W -1.05 ± 0.23 | S -0.921 ± 0.15 | N -0.788 ± 0.35 | L -1.03 ± 0.14 | Y -0.956 ± 0.12
G46: F -0.624 ± 0.24 | P -0.324 ± 0.093 | L -0.134 ± 0.068 | S -0.066 ± 0.07
P25: N -0.152 ± 0.14 | I -0.033 ± 0.062 | G -0.053 ± 0.091 | W -0.807 ± 0.17 | Q 0.035 ± 0.083 | L 0.099 ± 0.054
H42: G -0.301 ± 0.057 | R -0.19 ± 0.064 | T 0.008 ± 0.14 | M -0.162 ± 0.16
R16: L 0.168 ± 0.06 | A 0.2 ± 0.083 | Q 0.308 ± 0.14 | M 0.2 ± 0.1 | F 0.215 ± 0.11 | V 0.146 ± 0.06 | W 0.298 ± 0.12 | I 0.172 ± 0.13 | P 0.209 ± 0.082
A31: L 0.119 ± 0.079 | D -0.175 ± 0.11 | R 0.047 ± 0.067 | P -0.238 ± 0.084 | I -0.454 ± 0.19 | M 0.027 ± 0.087
I10: C -0.062 ± 0.09 | D -0.041 ± 0.11 | H -0.735 ± 0.17
H24: D -0.047 ± 0.08 | G -0.489 ± 0.089 | C 0.309 ± 0.063 | I -0.973 ± 0.36 | P -0.582 ± 0.086 | M -0.492 ± 0.09 | E -0.439 ± 0.14 | S -0.264 ± 0.093
T2: Y -0.31 ± 0.27 | I 0.208 ± 0.16 | A -0.578 ± 0.12 | P -0.66 ± 0.08 | S -0.559 ± 0.085 | D -0.305 ± 0.31 | E -0.597 ± 0.078 | M -0.51 ± 0.21
Q18: M -0.253 ± 0.12 | H -0.451 ± 0.2 | V 0.008 ± 0.081 | L -0.077 ± 0.083 | R -0.062 ± 0.082 | S 0.03 ± 0.084
E4: G -0.028 ± 0.096 | W -0.276 ± 0.12 | R -0.624 ± 0.052 | N 0.14 ± 0.09 | Y 0.056 ± 0.22 | K -0.362 ± 0.12 | S 0.014 ± 0.063 | C 0.033 ± 0.099 | M 0.093 ± 0.12
W44: P 0.205 ± 0.064 | E 0.139 ± 0.092 | F 0.025 ± 0.12 | H 0.15 ± 0.084
R40: M 0.063 ± 0.059 | V 0.092 ± 0.063 | F -0.156 ± 0.098 | G 0.219 ± 0.061 | A 0.041 ± 0.12 | L 0.129 ± 0.074 | H 0.274 ± 0.11
C51: R -0.969 ± 0.095 | E -0.219 ± 0.16 | V -1.17 ± 0.15 | K -0.839 ± 0.26 | D -0.593 ± 0.27 | P -0.614 ± 0.14
C3: S -0.693 ± 0.11 | H -0.399 ± 0.18 | W -1.05 ± 0.2 | Q -0.82 ± 0.13 | G -1.17 ± 0.17
A14: V -0.208 ± 0.092 | H -0.247 ± 0.24 | N -0.023 ± 0.12 | K -0.417 ± 0.093 | F 0.188 ± 0.14 | T -0.468 ± 0.11
Y22: K -0.311 ± 0.14 | W -0.014 ± 0.11 | V -0.321 ± 0.066 | Q -0.02 ± 0.076 | R -0.333 ± 0.094 | H -0.398 ± 0.22 | G -0.411 ± 0.08 | P -0.496 ± 0.14
C6: V -0.282 ± 0.09 | P -0.336 ± 0.2 | M -0.523 ± 0.13 | D -0.15 ± 0.22 | Y -0.743 ± 0.099 | A -0.408 ± 0.14 | I -0.135 ± 0.32 | W -0.872 ± 0.12 | L -0.597 ± 0.082
R21: S -0.02 ± 0.066 | N -0.259 ± 0.18 | Y -0.008 ± 0.11 | T 0.151 ± 0.12 | I -0.046 ± 0.14 | C -0.069 ± 0.12 | H -0.015 ± 0.055 | A 0.015 ± 0.071 | P -0.101 ± 0.11
F43: R -0.138 ± 0.071 | P -0.058 ± 0.084 | W 0.099 ± 0.074 | A -0.189 ± 0.088 | Q -0.26 ± 0.13 | L -0.048 ± 0.066
S7: L -0.09 ± 0.06 | F -0.137 ± 0.073 | C 0.023 ± 0.095 | H -0.212 ± 0.11 | D -0.55 ± 0.11 | A 0.085 ± 0.079
S9: M -0.62 ± 0.11 | N -0.058 ± 0.12 | A 0.199 ± 0.08 | L -0.767 ± 0.12 | W -1.01 ± 0.14 | I -0.764 ± 0.34 | G -0.08 ± 0.065
E52: I -0.468 ± 0.14 | W -0.108 ± 0.11 | Q -0.102 ± 0.22 | D 0.029 ± 0.062 | R -0.256 ± 0.064
G41: H -0.682 ± 0.36 | M -0.386 ± 0.09 | N -0.146 ± 0.22 | P -0.025 ± 0.12 | F -0.259 ± 0.18 | D -0.088 ± 0.15 | Y -0.395 ± 0.2
G20: S -0.29 ± 0.087 | E -0.209 ± 0.15 | T -0.129 ± 0.069 | V -0.363 ± 0.069 | H -0.119 ± 0.067 | N 0.006 ± 0.081 | M -0.154 ± 0.068 | A -0.251 ± 0.11 | C -0.339 ± 0.071 | F 0.116 ± 0.12 | L -0.452 ± 0.087
L37: W -0.731 ± 0.17 | I -0.322 ± 0.23 | K -0.502 ± 0.14
K38: Q -0.263 ± 0.16 | F -0.495 ± 0.17 | M -0.08 ± 0.098 | R -0.366 ± 0.076
H54: A -0.865 ± 0.29 | M -0.901 ± 0.25 | Y -0.284 ± 0.15 | Q -0.759 ± 0.15 | I -0.755 ± 0.093 | T -0.7 ± 0.18 | C 0.135 ± 0.084 | R -0.655 ± 0.087 | S -0.522 ± 0.097
Y50: D -0.079 ± 0.29 | Q -0.256 ± 0.069 | K 0.04 ± 0.078 | F -0.001 ± 0.15
E48: K -0.034 ± 0.12 | P -0.788 ± 0.1 | C -0.289 ± 0.23 | H -0.084 ± 0.32 | G 0.079 ± 0.079
N36: M -0.07 ± 0.084 | S -0.038 ± 0.077 | D -0.257 ± 0.16
D47: T -0.047 ± 0.068 | G -0.11 ± 0.075 | R 0.008 ± 0.061 | E -0.12 ± 0.14 | C -0.002 ± 0.11 | H -0.136 ± 0.098 | Y -0.224 ± 0.098
K5: R 0.261 ± 0.079 | L 0.049 ± 0.12 | V 0.055 ± 0.074 | Y 0.508 ± 0.14 | A 0.157 ± 0.11 | S -0.108 ± 0.096 | P -0.267 ± 0.16
Q13: S -0.128 ± 0.13 | M -0.223 ± 0.1 | V -0.327 ± 0.12 | L -0.36 ± 0.099 | F -0.049 ± 0.16 | E 0.194 ± 0.13 | G 0.098 ± 0.071
L35: R -0.187 ± 0.074 | T 0.167 ± 0.11
I17: W -0.533 ± 0.13 | V -0.106 ± 0.099
K53: G -0.158 ± 0.081 | E 0.235 ± 0.094 | F -0.089 ± 0.19 | Y 0.252 ± 0.2 | Q 0.028 ± 0.075 | D 0.078 ± 0.14 | S 0.184 ± 0.088 | L -0.135 ± 0.079
E19: M -0.163 ± 0.13 | D -0.374 ± 0.14 | W -0.624 ± 0.19 | T -0.068 ± 0.14 | N -0.453 ± 0.18 | L -0.237 ± 0.064 | C -0.447 ± 0.1 | F -0.672 ± 0.18 | Q -0.071 ± 0.13 | P -0.211 ± 0.11
C33: G -0.682 ± 0.061 | H -0.709 ± 0.12 | R -0.964 ± 0.086 | F -0.876 ± 0.14 | Y -0.823 ± 0.15 | V -0.885 ± 0.15 | W -0.765 ± 0.17
T8: G 0.153 ± 0.064 | Y 0.119 ± 0.13 | M -0.099 ± 0.085 | Q 0.056 ± 0.074 | L 0.004 ± 0.063 | N 0.221 ± 0.13 | V 0.189 ± 0.072
A55: S 0.148 ± 0.1 | G -0.079 ± 0.084 | Q 0.041 ± 0.15 | P -0.414 ± 0.22 | R 0.005 ± 0.074 | T -0.013 ± 0.11 | F 0.12 ± 0.081
G34: F -0.196 ± 0.13 | Q -0.03 ± 0.12 | T -0.177 ± 0.1 | Y -0.331 ± 0.13 | L -0.165 ± 0.064
Y28: A -0.076 ± 0.063 | C -0.187 ± 0.12
H1: Q -0.669 ± 0.25 | A -0.24 ± 0.27 | D -0.317 ± 0.48
V45: K 0.313 ± 0.1 | Y 0.066 ± 0.062 | R 0.108 ± 0.051 | E 0.041 ± 0.083 | I 0.29 ± 0.12 | H 0.221 ± 0.11
V15: S -0.231 ± 0.069 | I -0.105 ± 0.16 | H -0.099 ± 0.19 | L -0.248 ± 0.072 | Y -0.499 ± 0.22 | A -0.625 ± 0.16
T29: F -0.194 ± 0.18 | D 0.216 ± 0.14 | Y -0.17 ± 0.065
D32: F 0.006 ± 0.082 | M -0.022 ± 0.095 | S -0.193 ± 0.072 | P -0.824 ± 0.17 | A -0.361 ± 0.078 | I -0.284 ± 0.11 | G -0.178 ± 0.054
C27: S -0.598 ± 0.11 | F -1.02 ± 0.3 | Q -0.268 ± 0.075 | M -0.627 ± 0.099
L49: G -0.286 ± 0.068 | C -0.108 ± 0.066 | E -0.377 ± 0.081 | F -0.343 ± 0.19 | I 0.117 ± 0.18
R23: E -0.318 ± 0.14 | A -0.108 ± 0.067 | T -0.125 ± 0.089 | V -0.075 ± 0.065 | Q -0.509 ± 0.27 | I -0.69 ± 0.21 | C -0.238 ± 0.11
